Data as given in patent US20150079657, “TARGETED HISTONE ACETYLATION” (SIGMA-ALDRICH CO. LLC, published 2015).

B1: OCT4 +181 target site (dsDNA)
DNA 1: GGAGGGCCAGGAATCGGGC
DNA 2: GCCCGATTCCTGGCCCTCC
B2: PEDF -92 target site (dsDNA)
DNA 1: GGATGGTGGTGCAGCAGTG
DNA 2: CACTGCTGCACCACCATCC

What was measured:
ZF(Oct4+181)-p300 = ZF(Oct4+181)-p300 (Artificial Sequence); experiment: cell_activity; OCT4 mRNA activation in HEK293, 48 h; H3K18 and H3K27 acetylation also increased by ChIP (FIG. 1); conditions: tags: C-terminal fusion to human p300 HAT domain aa 1284-1673 (NM_001429)
Description: Expression vectors encoding ZF(Oct4+181)-p300 or one of the control fusion proteins described above were transfected into HEK 293 cells. Control cells were transfected with vectors encoding GFP, p65 (no ZF), or p300 (no ZF). After 48 hrs, the cells were harvested and total RNA was isolated. The levels of OCT4 mRNA and cyclophilin A (i.e., PPIA) endogenous control mRNA were measured by real time reverse transcriptase polymerase chain reaction (RT-PCR) (Life Technologies, Carlsbad, Calif.). The OCT4/cyc ratio was used for normalizing OCT4 expression.

ZF6961 (ZF(PEDF))-p300 = ZF6961 (ZF(PEDF))-p300 (Artificial Sequence); experiment: cell_activity; PEDF mRNA activation in HEK293, 72 h; conditions: tags: fusion to human p300 HAT domain aa 1284-1673
Description: Expression vectors encoding ZF(PEDF)-p300 or ZF(PEDF)-p65 were transfected into HEK 293 cells. Control cells were transfected with vectors encoding GFP, p65 (no ZF), or p300 (no ZF). Total RNA was isolated 72 hours later, and the levels of PEDF mRNA and cyclophilin A endogenous control mRNA were measured by RT-PCR. The PEDF/cyc ratio was used for normalizing PEDF expression.

Sequence of ZF6961 (ZF(PEDF))-p300 (Artificial Sequence) (chain, as listed by the source): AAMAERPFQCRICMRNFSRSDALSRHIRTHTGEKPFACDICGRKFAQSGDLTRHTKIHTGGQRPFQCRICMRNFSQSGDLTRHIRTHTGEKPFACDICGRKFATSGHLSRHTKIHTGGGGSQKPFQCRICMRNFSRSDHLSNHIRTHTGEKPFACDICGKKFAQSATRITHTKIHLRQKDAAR
Sequence of ZF(Oct4+181)-p300 (Artificial Sequence) (chain, as listed by the source): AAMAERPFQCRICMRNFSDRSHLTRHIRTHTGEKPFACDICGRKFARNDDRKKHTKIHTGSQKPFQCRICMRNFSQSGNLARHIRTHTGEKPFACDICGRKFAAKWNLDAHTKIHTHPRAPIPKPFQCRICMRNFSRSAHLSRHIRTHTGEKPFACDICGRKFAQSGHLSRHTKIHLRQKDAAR

Row | Binder | activity (ZF(Oct4+181)-p300) [fold] | activity (ZF6961 (ZF(PEDF))-p300) [fold]
1 | B1 | > 25 | 
2 | B2 |  | > 2.5
